This is an account of results in PMC7013354.

For test [1], the target named is truncated E2 protein of CSFV C-strain with glutathione S-transferase tag (grE2) (classical swine fever virus, C-strain). Briefly: ELISA. Background: In an ELISA, binding on a coated surface is turned into a signal by an enzyme label.
The target is the same in test [2]. Briefly: SPR.

B1: recombinant sdAbE2-1 (VHH)
VHH: QVQLLESGGGLVQPGGSLRLSCAASGYSFIDKTMAWVRQAPGKGLEWVSAIRMHNGSTYYADSVKGRFTISRDNSKNTLYLQMNSLRAEDTAVYYCARLSRRIQAKDKAKLKYWGQGTLVTVSS
By Kd is commonly meant a measure of binding affinity in units of concentration. Low readings indicate a tighter complex, high ones a looser complex. As a reminder, the koff is a measure of how fast the partners let go of each other. High values mean a short-lived complex, low ones a long-lived complex. As a reminder, the kon is a measure of how fast the partners come together. The molecule B1 had an OD450nm value in test [1] of 0.765. In test [2], this molecule had a Kd of 334 nM, a koff of 0.00791 s⁻¹ and a kon of 23700 M⁻¹ s⁻¹.

B2: recombinant sdAbE2-2 (VHH)
VHH: DVQLVESGGGLVQAGGSLRLSCTASGFTFDDYAMAWFRQPPGKEREGVSCISSSGGSTWYADSVKGRFTVSRDNAKNTLYLQMNSLKPEDTAMYYCAADWGRLCVVRGPRNEYKYSGQGTQVTVSS
B2 came in with an OD450nm value in test [1] of 0.743. In test [2], this molecule displayed a Kd of 13.5 nM, a koff of 0.00859 s⁻¹ and a kon of 635000 M⁻¹ s⁻¹.
